B1: DARP14 subunit A (cage subunit A fused to the DARPin by a continuous alpha helix) (other)
chain: MRITTKVGDKGSTRLFGGEEVWKDSPIIEANGTLDELTSFIGEAKHYVDEEMKGILEEIQNDIYKIMGEIGSKGKIEGISEERIAWLLKLILRYMEMVNLKSFVLPGGTLESAKLDVCRTIARRALRKVLTVTREFGIGAEAAAYLLALSDLLFLLARVIEIELGKKLLEAARAGQDDEVRILMANGADVNAHDDQGSTPLHLAAWIGHPEIVEVLLKHGADVNARDTDGWTPLHLAADNGHLEIVEVLLKYGADVNAQDAYGLTPLHLAADRGHLEIVEVLLKHGADVNAQDKFGKTAFDISIDNGNEDLAEILQKLN
B2: DARP14 subunit B (unfused cage subunit B) (other)
chain: MPHLVIEATANLRLETSPGELLEQANKALFASGQFGEADIKSRFVTLEAYRQGTAAVERAYLHACLSILDGRDIATRTLLGASLCAVLAEAVAGGGEEGVQVSVEVREMERLSYAKRVVARQR

Target: the molecule itself
Assay: cryo-EM structure

| Protein | binding result |
| --- | --- |
| B1 | binds |
| B2 | binds |

Reference: article doi:10.1101/212233 (bioRxiv, 2017)
